Test system: Saccharomyces cerevisiae
Test: protein stability index of tFT-peptide fusion in wild type (PSI (0-1 scale)); higher = more stable (slower turnover)
Conditions: genetic background: wild type
Description: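 MPS profiling in S. cerevisiae of two library types built from selected 12-aa C-degron peptides (IN1, IN2, LN1, LN3, VN2, R1-R5, W1-W3, Atg1 and Rpa12 C-termini): saturation mutagenesis libraries and C-terminal +1 capping libraries (13 aa). Each peptide is fused to the C-terminus of a sfGFP-mCherry timer, after a GGGS linker. Cells are FACS-sorted into 8 mCherry/sfGFP bins and sequenced. PSI runs from 0 (unstable) to 1 (stable), measured once in wild type and in the das1Δ or doa10Δ background.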
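Note: PSI derived as read-weighted mean over the 8 sorting bins, only variants exceeding 10 total reads kept, mCherry placed adjacent to the peptide and sfGFP distal.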

Sequence	protein stability index
AKHKKGQKQKIN	0.11
ARCRVGLWRGAS	0.597
ARQRVGLWRGAS	0.6
ARWEVGLWRGAS	0.458
ARWRCGLWRGAS	0.574
ARWRNGLWRGAS	0.658
ARWRVFLWRGAS	0.432
ARWRVGEWRGAS	0.677
ARWRVGHWRGAS	0.582
ARWRVGLDRGAS	0.665
ARWRVGLWCGAS	0.567
ARWRVGLWNGAS	0.634
ARWRVGLWRGAL	0.596
ARWRVGLWRGAN	0.121
ARWRVGLWRGAP	0.662
ARWRVGLWRGASA	0.665
ARWRVGLWRGASV	0.675
ARWRVGLWRGAT	0.447
ARWRVGLWRGES	0.681
ARWRVGLWRGGS	0.672
ARWRVGLWRGVS	0.122
ARWRVGLWRRAS	0.093
ARWRVGLWWGAS	0.556
ARWRVHLWRGAS	0.294

Sequence	protein stability index
ARWRVILWRGAS	0.496
ARWRYGLWRGAS	0.489
AWWRVGLWRGAS	0.504
AYWRVGLWRGAS	0.449
CFSCGYKFRTNN	0.188
CKILRQKMNHQN	0.165
CTFCGYKFRTNN	0.253
CTSCGYCFRTNN	0.261
CTSCGYFFRTNN	0.222
CTSCGYIFRTNN	0.233
CTSCGYKARTNN	0.623
CTSCGYKFRTAN	0.27
CTSCGYKFRTNC	0.224
CTSCGYKFRTNP	0.689
CTSCGYKFWTNN	0.299
CTSCGYPFRTNN	0.677
CTSCVYKFRTNN	0.164
CTSCWYKFRTNN	0.168
ESLAASFWRVVG	0.136
FKHKKGQKQKIN	0.123
FSMAWTFRYWVN	0.0458
FSMFWTFRYWVN	0.0733
FSMRCTFRYWVN	0.0458
FSMRFTFRYWVN	0.0475

Sequence	protein stability index
FSMRITFRYWVN	0.0393
FSMRRTFRYWVN	0.102
FSMRWTFAYWVN	0.047
FSMRWTFRAWVN	0.104
FSMRWTFRDWVN	0.595
FSMRWTFRQWVN	0.109
FSMRWTFRYFVN	0.0378
FSMRWTFRYGVN	0.338
FSMRWTFRYKVN	0.0899
FSMRWTFTYWVN	0.0917
FSMRWTMRYWVN	0.0449
FSMRWTSRYWVN	0.105
FSMRWTTRYWVN	0.0528
FSMRYTFRYWVN	0.0639
FSRRWTFRYWVN	0.0509
GDKRNHLIKLLN	0.158
GSMRWTFRYWVN	0.0781
HLIQPLPVQFLN	0.13
IDKRNHLIKLLN	0.143
KKHCKGQKQKIN	0.13
KKHEKGQKQKIN	0.0983
KKHKIGQKQKIN	0.142
KKHKKDQKQKIN	0.0671
KKHKKGIKQKIN	0.0645

Sequence	protein stability index
KKHKKGMKQKIN	0.0523
KKHKKGNKQKIN	0.0792
KKHKKGQCQKIN	0.16
KKHKKGQHQKIN	0.0824
KKHKKGQIQKIN	0.109
KKHKKGQKLKIN	0.114
KKHKKGQKQFIN	0.209
KKHKKGQKQHIN	0.435
KKHKKGQKQKINA	0.259
KKHKKGQKQKIQ	0.37
KKHKKGQKQKSN	0.553
KKHKKGQKQWIN	0.553
KKHKKGQKYKIN	0.199
KKHKKGRKQKIN	0.0973
KKHKKGVKQKIN	0.128
KKLKKGQKQKIN	0.0797
KKNKKGQKQKIN	0.141
KVHKKGQKQKIN	0.0686
KWHKKGQKQKIN	0.108
LGILRQKMNHQN	0.141
LKILKQKMNHQN	0.222
LKILRFKMNHQN	0.201
LKILRPKMNHQN	0.541
LKILRQKMAHQN	0.178

Sequence	protein stability index
LKILRQKMEHQN	0.404
LKILRQKMNHDN	0.39
LKILRQKMNHEN	0.237
LKILRQKMNHQNE	0.652
LKILRQKMNHQNL	0.672
LKILRQKMNHQNN	0.585
LKILRQKMNHQT	0.252
LKILRQKMNHVN	0.206
LKILRQKMNHYN	0.223
LKILRQKMNIQN	0.214
LKILRQKMNSQN	0.213
LKILRQKMPHQN	0.681
LKILRQKPNHQN	0.68
LKILRSKMNHQN	0.208
LKILRWKMNHQN	0.209
LKILRYKMNHQN	0.181
LKILSQKMNHQN	0.232
LKKLRQKMNHQN	0.235
LKNLRQKMNHQN	0.208
LVDYLSCVACIN	0.21
LVFYLSCVACIN	0.016

From the supplement of paper PMC10724198
